Experimental data taken from publication PMC11276004.

Columns and labels:
[1] = biological target: YPet (Yellow fluorescent Protein for energy transfer); test: AUC; sedimentation velocity, purified protein, 20 °C, PBS, 2-40 μM monomer, 40,000 rpm; c(s) fits in SEDFIT; monomer-dimer association model in SEDPHAT; constant is of dimer to monomers
[2] = biological target: YPet (Yellow fluorescent Protein for energy transfer); test: SEC-SAXS; synchrotron SAXS in line with SEC; 260 μM YPet or 230 μM mCLIFY injected, PBS, room temperature; SVD-EFA, mass from Qr and Porod
[3] = biological target: YPet (Yellow fluorescent Protein for energy transfer); test: SEC-MALS; in line with SAXS; 100 μl of 260 μM YPet or 230 μM mCLIFY injected, Shodex 804 column, PBS, room temperature; 53 μM (YPet) and 48 μM (mCLIFY) at peak
[4] = biological target: YPet (Yellow fluorescent Protein for energy transfer); test: AUC; sedimentation velocity on cleared bacterial lysates of expressing cultures, detection at 515 nm; 4.6 μM YPet in 14.3 mg/mL lysate, 6.2 μM mCLIFY in 13.7 mg/ml lysate

Kd [1]: 3.4 µM
stoichiometry N [1]: 2
stoichiometry N [2]: 2
stoichiometry N [3]: 2
stoichiometry N [4]: 2
Substance: YPet (Yellow fluorescent Protein for energy transfer)
